Laboratory results from the supplement of paper PMC9170038.

Tested on: MS2 coat protein
Test: apparent KD of MS2 coat protein; designed switch direction (-1 OFF switch, 1 ON switch): -1; higher = weaker reporter binding
How it was run: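 On Illumina chips, designed RNA switches with common flanks were made by stalled E. coli RNA polymerase. Titrations with SNAP-549-labelled MS2 coat protein, doubling from 0.7 or 1.5 nM to 3 µM, were done with no input, with 200 uM small-molecule ligand, or with an oligonucleotide input. Apparent KD is the median per design over clusters, from curve fits of normalised cluster fluorescence.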

[1] = input ligand: microRNA oligo, concentration not stated
[2] = Eterna round: R95, input ligand: FMN 200 uM
[3] = Eterna round: R95, input ligand: microRNA oligo, concentration not stated
[4] = Eterna round: R95, input ligand: none

Row | Sequence | apparent KD of MS2 coat protein (input ligand: FMN 200 uM) [µM] | apparent KD of MS2 coat protein (input ligand: none) [µM] | apparent KD of MS2 coat protein [1] [µM] | apparent KD of MS2 coat protein [2] [µM] | apparent KD of MS2 coat protein [3] [µM] | apparent KD of MS2 coat protein [4] [µM]
1 | CCCUCACAUGAGGAUCACCCAUGUCAGGAUAUCUCAGUGCGUCCACACGGACACAUCAAGAGAAGGGACAAAAC [Maceedesbi] (Eterna round: R97, puzzle: Exclusion 1) | 0.0263 | 0.0186 | – | – | – | –
2 | UAGUACAGAGGAUAUACAUGAGGAUCACCCAUGUGUUUCAGCUAGGAGACUAGCGAAAGUAGAAGGCUGUACUA [salish99_ex3_r4_008] (Eterna round: R97, puzzle: Exclusion 3) | 0.0229 | 0.00942 | – | – | – | –
3 | UAUAUAUAGUAAGGAUAUGUAUUUAUUCUAUAAACAGAAGGUACUGACAUGAGGAUCACCCAUGUUUUAGUGUGGGCAUGUAGA [JMF's solution 18] (Eterna round: R96, puzzle: Exclusion NG 1) | – | – | 0.033 | – | – | –
4 | UUUAAUUUUUUUUUUUUACAAGCUUUUUGCUCGUCUUAUACAUGAGGAUCACCCAUGUGGGUAAGGGAUAAAUUAUC [JMF 37] (puzzle: Sensor v3, turn-off variant 2) | – | – | – | 0.0285 | 0.0334 | 0.0353
5 | UUUUUAUAUGAAGGAUAUACUUAACAUGAGGAUCACCCAUGUGGUGUUGUGAGUGAGUGAGUUUAGUAGAAGGUCAAUUAUUAU [JMF's solution 15] (Eterna round: R96, puzzle: Exclusion NG 2) | 0.719 | 0.271 | 0.39 | – | – | –
6 | UGAUCACAUGAGGAUCACCCAUGUCAGGAUAUCUACAUUGAAGCUUCGGCUUCAAUGUAGAGAAGGGACAUAAU [E1/3-B1] (Eterna round: R97, puzzle: Exclusion 1) | 0.115 | 0.175 | – | – | – | –
7 | UAUAUAUAGUAAGGAUAUGUAUUUAUUUUAUAGACAGAAGGUACUGACAUGAGGAUCACCCAUGUUUUAGUGUGGGCAUGUAGA [JMF's solution 27] (Eterna round: R96, puzzle: Exclusion NG 1) | 0.122 | 0.0944 | 0.0785 | – | – | –
8 | GAAAAGGUAGAGGAUAUUUCAGAUCAAAGCUGCAAAGAAGGCUGCACAUGAGGAUCACCCAUGUGGUCAAUAAA [Mod of Quesina 12 - Jieux - Exclusion 6] (Eterna round: R97, puzzle: Exclusion 6) | 0.0597 | 0.0209 | – | – | – | –
9 | CUUAGCCUAAAAUCACGCAAGCUUUUUGCUUGUCUAAAGACAUGAGGAUCACCCAUGUCCGGGCUGAACUUAUGGAA [Atqusoen] (puzzle: Sensor v3, turn-off variant 2) | – | – | – | 0.0177 | 0.0181 | 0.016
10 | UUAUUGUGAGGAUAUCAGGUGUGCUAGCGUACUGGUACAUCUGAGAAGGCACAUGAGGAUCACCCAUGUUCCUU [JL-ex4-3.26 Brourd mod] (puzzle: Exclusion 4) | – | – | – | – | 0.0144 | –
11 | CGCACACAUGAGGAUCACCCAUGUGAGGAUAUCAUGCUUCGUAGUAAACUACGAAGUGUGAGAAGGCACAUGCC [Omei Ex1 D7] (Eterna round: R97, puzzle: Exclusion 1) | 0.0242 | 0.0184 | – | – | – | –
12 | UCGCUCCGUGUAGGAUAUCGUUGUACUCUGCGGCGAGAAGGACAUGAGGAUCACCCAUGUAUGUUAUUAUCACGCGUGGCGCAA [Design 68] (Eterna round: R96, puzzle: Exclusion NG 1) | 0.0215 | 0.019 | 0.017 | – | – | –
13 | UAAAACGUAGGAUAUGCGGAAAAUAACUUGAGGAUCACCCAAGUGUCCGAGAGGCUAAAUGCAGAAGGACGAGAUC [Edxedi] (Eterna round: R97, puzzle: Exclusion 5) | 0.179 | 0.105 | – | – | – | –
14 | GCGCAGUCAGGAUAUGCCGCUUGCGAUCACCGUUGGCAAAGGCAGAAGGGACAUGAGGAUCACCCAUGUGGCGC [e4e Mirror Pins #3] (puzzle: Exclusion 4) | – | – | – | – | 0.0181 | –
